These results are taken from paper PMC8812563 (Proceedings of the National Academy of Sciences of the …, 2022).

This experiment addresses T1, PHYTOCHROME-INTERACTING FACTOR 7 with Flash tag (35S::PIF7-Flash; 9xMyc-6xHis-3xFlag) (Arabidopsis thaliana, UniProt Q570R7 1-366).
T1 sequence (looked up): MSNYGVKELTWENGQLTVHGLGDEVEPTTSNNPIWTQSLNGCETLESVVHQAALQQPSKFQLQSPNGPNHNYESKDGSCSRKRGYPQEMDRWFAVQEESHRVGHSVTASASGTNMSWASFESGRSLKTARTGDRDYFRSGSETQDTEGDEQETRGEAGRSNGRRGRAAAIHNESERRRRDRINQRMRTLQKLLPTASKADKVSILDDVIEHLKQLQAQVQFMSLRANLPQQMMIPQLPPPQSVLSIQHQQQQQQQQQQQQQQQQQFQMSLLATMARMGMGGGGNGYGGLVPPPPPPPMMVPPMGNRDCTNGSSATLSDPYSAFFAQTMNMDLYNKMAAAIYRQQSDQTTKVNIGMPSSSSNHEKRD
The experiment in a line: co-IP.

B1: ANGUSTIFOLIA3 / GRF-INTERACTING FACTOR 1 with GS^yellow tag (35S::AN3-GS^yellow) (natural protein, Arabidopsis thaliana, UniProt Q8L8A5 1-210, looked up)
chain: MQQHLMQMQPMMAGYYPSNVTSDHIQQYLDENKSLILKIVESQNSGKLSECAENQARLQRNLMYLAAIADSQPQPPSVHSQYGSAGGGMIQGEGGSHYLQQQQATQQQQMTQQSLMAARSSMLYAQQQQQQQPYATLQHQQLHHSQLGMSSSSGGGGSSGLHILQGEAGGFHDFGRGKPEMGSGGGGEGRGGSSGDGGETLYLKSSDDGN
Regarding B1, the binding result is on record as “binds”.
